Experimental data reported in patent US20030235860A1, “Interactions between AR, ER, TR2, and TR4” (priority 1999, published 2003).

How the values were obtained:
TR4-DR1 = TR4-DR1 (Homo sapiens, UniProt P49116); conditions: increasing amounts of in vitro translated AR (1, 2, 4 μl)
Procedure: EMSA was performed as described previously. […] Briefly, the reaction was performed by incubating the 32P-end labeled DR1 probe with in vitro translated TR4 (1 ml) with or without an increasing amount of AR (1, 2, 4 ml). The EMSA incubation buffer is 10 mM HEPES, pH 7.9, 2% (v/v) glycerol, 100 mM KCl, 1 mM EDTA, 5 mM MgCl, and 1 mM DTT. For the antibody supershifted analysis, 1 ml of monoclonal anti-TR4 antibody (#15) was added to the reaction. […] The radioactive gel was analyzed by autoradiography.
One μl of in vitro translated TR4 protein was incubated with increasing amounts of in vitro translated AR (1 μl, 2 μl, and 4 μl) in EMSA reaction buffer (10 mM HEPES pH 7.9, 2% (v/v) glycerol, 100 mM KCl, 1 mM EDTA, 5 mM MgCl2, and 1 mM DTT) for 15 min. 32P-end labeled DR1 was added into the protein mixture and incubated for 15 min before loading. For the antibody supershift assay, 1 μl of monoclonal anti-TR4 antibody was added to the reaction and applied to a 5% native polyacrylamide gel. The radioactive gel was analyzed by autoradiography.

TR4 = target: T1, TR4 (Homo sapiens, UniProt P49116); assay: TR4-mediated transactivation reporter assay; assay type: cell-based
T1 construct: full-length AR and TR4 in eukaryotic expression vectors (pSG5AR and pCMXTR4) were co-transfected; expressed in transfected cells; host or cells: H1299, HepG2
T1 sequence (P49116 1-615 isoform P49116-2 N175S/W419R/A428G/K503N/L504W/A613V): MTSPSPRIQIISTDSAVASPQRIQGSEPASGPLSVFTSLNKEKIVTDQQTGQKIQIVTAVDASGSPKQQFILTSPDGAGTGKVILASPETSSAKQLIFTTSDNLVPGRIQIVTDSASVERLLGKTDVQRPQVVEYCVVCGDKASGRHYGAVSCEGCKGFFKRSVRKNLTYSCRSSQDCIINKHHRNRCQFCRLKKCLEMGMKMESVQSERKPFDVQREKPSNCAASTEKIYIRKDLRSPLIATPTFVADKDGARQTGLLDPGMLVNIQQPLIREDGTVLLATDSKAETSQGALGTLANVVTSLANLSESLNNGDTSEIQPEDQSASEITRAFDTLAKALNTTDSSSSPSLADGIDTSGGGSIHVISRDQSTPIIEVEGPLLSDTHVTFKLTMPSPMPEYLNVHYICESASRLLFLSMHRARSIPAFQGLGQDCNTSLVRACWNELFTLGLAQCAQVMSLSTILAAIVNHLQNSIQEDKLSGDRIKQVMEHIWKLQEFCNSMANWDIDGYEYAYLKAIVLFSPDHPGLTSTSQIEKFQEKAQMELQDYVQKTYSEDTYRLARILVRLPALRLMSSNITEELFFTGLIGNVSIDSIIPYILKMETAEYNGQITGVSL
Procedure: Cells were routinely maintained in DMEM with 10% heat-inactivated fetal bovine serum. The cells were transfected using a modified calcium phosphate precipitation method, Mizokami, & Chang, J: Biol. Chem. 269,25655-25659 (1994), or SuperFect (Qiagen). To normalize the transfection efficiency, the (3-galactosidase expression ver and pRL-TK were co-transfected in CAT assay and in Dual-luciferase reporter assay system (Promega), respectively.
More specifically, 500 ng of reporter plasmids were co-transfected(DR4-CAT and CNTFR-15-LUC) with 200 ng of pCMX-TR4 and increasing amounts of pCMV-AR (200, 600, and 1,200 ng), pSG5GR (1,200 ng), or pSG5 PR (1,200 ng) using the SuperFect transfection kit (Qiagen) (PCMV AR Mowszowicz et al., (1993) Molecular Endocrinology 7:861:869). […] Similar results were obtained when the DR4-TK-CAT reporter was replaced with DR1-CNTFR-15-LUC, another TR4 response element (FIG. 3A). Young, et al., J: Biol. Chem. 272,3109-3116 (1997).
Another TR4 potential target gene, which is located in the hepatitis B virus (HBV) enhancer II region (−34 to −7) containing a classic DR1 motif. Breidbart, et al., Pediatric Res. 34,300-302 (1993), was investigated. The reporter plasmid CpFL(4)-LUC, which contains the HBV core promoter (Cp) sequence located between −34 and −7 (nucleotide coordinates 1751 and 1778 derived from the Genbank database) was shown above in FIG. 3B. The arrows indicate the DRI motif in HBV core promoter. HepG2 cells were co-transfected with 1.5 μg CpFL(4)-LUC reporter and 0.5 μg pCMX-TR4, with increasing amounts of pCMV-AR (0.5, 2.5, and 5 μg) by modified calcium phosphate precipitation method. The relative reporter gene activities were compared to the CAT activities (or luciferase activities) with vector alone. To normalize the transfection efficiency, the β-galactosidase expression vector and pRL-TK were co-transfected in the CAT assay and in the Dual-luciferase reporter assay system (Promega), respectively.

cyclin D1 = assay: Western blot of cyclin D1 in MCF-7-TR4 cells; assay type: cell-based; conditions: 10 nM E2, Dox
Procedure: MCF-7-TR4 or MCF-7-pBIG cells were cultured in DMEM containing 10% charcoal dextran-treated FBS for 3 days and then 1×10^6 cells were seeded on 100-mm dishes. […] The lysate protein amount was quantitated by Bradford assay (Bio-Rad, Hercules, Calif.) with bovine serum albumin as a reference standard. One hundred μg protein was loaded and after electrophoresis on 10% SDS-PAGE was transferred onto Immobulin (Milipore, Bedford, Mass.). The membrane was blotted with anti-cyclin D1 rabbit polyclonal Ab (H-295) (Santa Cruz). Alkaline phosphatase conjugated secondary Ab was used.

AR = target: T2, AR (Homo sapiens, UniProt P10275, DEL79-80/DUP473-473); assay: Immunocytofluorescence of AR localization in DU145 cells; assay type: cell-based; design: expressed in transfected cells; host or cells: DU145 cells; conditions: absence of DHT
T2 sequence (P10275 with tags, fused parts or gaps DEL79-80/DUP473-473): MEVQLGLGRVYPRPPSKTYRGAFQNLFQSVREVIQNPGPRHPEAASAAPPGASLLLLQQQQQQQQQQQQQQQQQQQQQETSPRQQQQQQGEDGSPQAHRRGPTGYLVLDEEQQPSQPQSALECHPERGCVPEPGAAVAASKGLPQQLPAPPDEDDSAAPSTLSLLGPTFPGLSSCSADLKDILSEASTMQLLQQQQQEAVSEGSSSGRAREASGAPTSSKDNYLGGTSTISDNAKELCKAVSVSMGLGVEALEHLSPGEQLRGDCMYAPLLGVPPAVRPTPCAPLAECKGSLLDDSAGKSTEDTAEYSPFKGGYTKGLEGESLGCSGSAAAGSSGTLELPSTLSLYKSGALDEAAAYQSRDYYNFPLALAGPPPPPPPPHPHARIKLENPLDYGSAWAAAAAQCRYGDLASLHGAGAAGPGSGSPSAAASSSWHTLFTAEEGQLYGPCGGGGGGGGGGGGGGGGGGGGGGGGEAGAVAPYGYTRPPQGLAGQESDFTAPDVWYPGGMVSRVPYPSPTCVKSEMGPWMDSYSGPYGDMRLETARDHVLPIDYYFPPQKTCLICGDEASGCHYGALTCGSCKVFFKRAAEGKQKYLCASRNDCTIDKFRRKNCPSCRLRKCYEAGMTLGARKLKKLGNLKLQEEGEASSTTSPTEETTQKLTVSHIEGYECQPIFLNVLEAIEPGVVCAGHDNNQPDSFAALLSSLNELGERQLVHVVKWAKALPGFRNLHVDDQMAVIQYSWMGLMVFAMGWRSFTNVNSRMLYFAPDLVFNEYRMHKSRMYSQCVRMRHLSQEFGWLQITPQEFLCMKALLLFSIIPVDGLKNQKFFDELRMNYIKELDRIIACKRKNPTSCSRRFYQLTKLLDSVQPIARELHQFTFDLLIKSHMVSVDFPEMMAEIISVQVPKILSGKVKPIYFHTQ
Procedure: DU145 cells were seeded on two-well Lab Tek Chamber slides (Nalge Nunc International) 18 h before transfection. One to two μg of DNA per 10^5 cells was transfected by the FuGENETM 6 transfection reagent (Boehringer-Mannheim). […] Immunostaining was performed by incubating with anti-AR polyclonal antibody (NH27), anti-TR4 monoclonal antibody (#15), and anti-ERa monoclonal antibody (C-314, Santa Cruz), followed by incubation with either fluorescein-conjugated goat anti-rabbit or anti-mouse antibodies (ICN Pharmaceuticals, Inc.). […] The slides were photographed under 100-fold magnification using confocal microscopy.
An immunocytofluorescence assay was then applied to determine the subcellular localization of the AR and TR4 in DU145 cells. DU145 cells were seeded on two-well Lab Tek Chamber slides (Nalge Nunc International) 18 hours before transfection. One to two μg of DNA per 105 cells was transfected either with AR (unliganded or liganded), TR4, or ER alone or in combination with the FuGENETM6 transfection reagent (Boehringer-Mannheim). […] Immunostaining was performed by incubation with the anti-AR polyclonal antibody, anti-TR4 monoclonal antibody, or anti-ERa monoclonal antibody, followed by incubation with either fluorescein-conjugated goat anti-rabbit or anti-mouse antibodies (ICN Pharmaceuticals, Inc.).

AR: androgen receptor, SEQ ID NO:31
Specific TR4-DR1 band (TR4-DR1): decreased
CAT activity induced by pCMXTR4 (DR4-TK-CAT; similar with DR1-CNTFR-I5-LUC) (TR4; H1299 cells, absence or presence of DHT): repressed significantly
TR4-induced CpFL(4)-LUC activity (HBV core promoter) (TR4; HepG2 cells, increasing pCMV-AR): significantly decreased
Activity TR4 (effect of regulator on transcription activity) (TR4; Table 5): Down

B1: TR4: human testicular orphan nuclear receptor 4, SEQ ID NO:16; expressed from plasmid or in vitro translated (protein)
chain: MTSPSPRIQIISTDSAVASPQRIQGSEPASGPLSVFTSLNKEKIVTDQQTGQKIQIVTAVDASGSPKQQFILTSPDGAGTGKVILASPETSSAKQLIFTTSDNLVPGRIQIVTDSASVERLLGKTDVQRPQVVEYCVVCGDKASGRHYGAVSCEGCKGFFKRSVRKNLTYSCRSSQDCIINKHHRNRCQFCRLKKCLEMGMKMESVQSERKPFDVQREKPSNCAASTEKIYIRKDLRSPLIATPTFVADKDGARQTGLLDPGMLVNIQQPLIREDGTVLLATDSKAETSQGALGTLANVVTSLANLSESLNNGDTSEIQPEDQSASEITRAFDTLAKALNTTDSSSSPSLADGIDTSGGGSIHVISRDQSTPIIEVEGPLLSDTHVTFKLTMPSPMPEYLNVHYICESASRLLFLSMHRARSIPAFQGLGQDCNTSLVRACWNELFTLGLAQCAQVMSLSTILAAIVNHLQNSIQEDKLSGDRIKQVMEHIWKLQEFCNSMANWDIDGYEYAYLKAIVLFSPDHPGLTSTSQIEKFQEKAQMELQDYVQKTYSEDTYRLARILVRLPALRLMSSNITEELFFTGLIGNVSIDSIIPYILKMETAEYNGQITGVSL
Cyclin D1 expression (cyclin D1): suppress
Subcellular localization of unliganded AR on co-transfection (AR): moves into the nucleus
